In paper PMC10617567:

System: AIM2 (recombinant AIM2FL)
Test: EMSA
Settings: 3' biotin; EMSA: 0.1 uM biotinylated 149 bp dsDNA, protein up to 2.5 ug (twofold dilutions), 4 C, 30 min, 5% native PAGE in 45 mM Tris-borate/1 mM EDTA; pull-down: 1 ug …

## 149 bp HBV dsDNA
  Kd: 1.38
